What was measured:
[1] = target: recombinant TACE catalytic domain
MMP7 catalytic domain = target: T1, MMP7 catalytic domain
T1 sequence (P09237 whole entry, species assumed, looked up): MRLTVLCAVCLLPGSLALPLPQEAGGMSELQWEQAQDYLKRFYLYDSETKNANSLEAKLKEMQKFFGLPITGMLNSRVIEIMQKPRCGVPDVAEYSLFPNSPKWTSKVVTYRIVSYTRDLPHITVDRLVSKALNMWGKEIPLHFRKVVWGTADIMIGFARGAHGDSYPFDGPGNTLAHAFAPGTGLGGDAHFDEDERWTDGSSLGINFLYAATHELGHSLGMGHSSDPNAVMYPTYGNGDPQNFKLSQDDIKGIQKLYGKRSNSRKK

Sequence of recombinant TACE catalytic domain (P78536 215-671): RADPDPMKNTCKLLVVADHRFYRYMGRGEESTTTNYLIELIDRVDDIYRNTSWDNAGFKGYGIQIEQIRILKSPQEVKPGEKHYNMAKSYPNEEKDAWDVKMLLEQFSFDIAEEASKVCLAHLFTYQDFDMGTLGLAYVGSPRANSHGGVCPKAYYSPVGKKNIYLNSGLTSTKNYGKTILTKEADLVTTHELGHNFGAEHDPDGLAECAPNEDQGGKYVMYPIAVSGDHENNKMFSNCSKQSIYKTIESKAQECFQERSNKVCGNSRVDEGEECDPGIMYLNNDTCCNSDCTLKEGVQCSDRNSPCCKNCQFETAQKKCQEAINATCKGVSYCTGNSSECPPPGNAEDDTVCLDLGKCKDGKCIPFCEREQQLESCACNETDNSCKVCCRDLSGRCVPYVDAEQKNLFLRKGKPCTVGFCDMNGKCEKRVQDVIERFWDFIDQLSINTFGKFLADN
Sequence of MMP9 catalytic domain (P14780 20-707): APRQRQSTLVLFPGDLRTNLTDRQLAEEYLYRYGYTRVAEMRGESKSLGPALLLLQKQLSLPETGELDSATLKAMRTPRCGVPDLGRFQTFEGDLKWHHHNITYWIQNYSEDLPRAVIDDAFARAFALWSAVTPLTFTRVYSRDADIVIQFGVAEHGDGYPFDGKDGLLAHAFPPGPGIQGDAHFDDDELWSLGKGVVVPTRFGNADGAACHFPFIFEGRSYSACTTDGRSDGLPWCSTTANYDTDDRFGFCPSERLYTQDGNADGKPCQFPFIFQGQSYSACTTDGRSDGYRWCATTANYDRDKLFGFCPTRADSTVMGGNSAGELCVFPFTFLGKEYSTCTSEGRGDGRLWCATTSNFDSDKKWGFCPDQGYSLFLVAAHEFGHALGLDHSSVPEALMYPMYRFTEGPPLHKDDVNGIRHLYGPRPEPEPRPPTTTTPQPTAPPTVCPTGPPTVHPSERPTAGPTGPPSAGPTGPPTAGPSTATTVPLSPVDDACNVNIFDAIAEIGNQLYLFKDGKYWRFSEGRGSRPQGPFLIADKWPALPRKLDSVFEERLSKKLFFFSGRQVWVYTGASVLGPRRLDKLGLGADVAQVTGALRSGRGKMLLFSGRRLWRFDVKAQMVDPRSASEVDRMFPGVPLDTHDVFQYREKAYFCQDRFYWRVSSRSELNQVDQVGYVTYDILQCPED

IC50 of inhibition of the enzyme's hydrolysis of a fluorogenic peptide (10 nM MT1-MMP, Mca-PLGL-Dpa-AR 10 μM, 37 °C) (MT1-MMP catalytic domain)	IC50 of inhibition of the enzyme's hydrolysis of a fluorogenic peptide (10 nM TACE, 37 °C) [1]	IC50 of inhibition of the enzyme's hydrolysis of a fluorogenic peptide (10 nM MMP9, Mca-PLGL-Dpa-AR 10 μM, 37 °C) (MMP9 catalytic domain)	IC50 of inhibition of the enzyme's hydrolysis of a fluorogenic peptide (10 nM MMP7, Mca-PLGL-Dpa-AR 10 μM, 37 °C) (MMP7 catalytic domain)	Substance
4.65 µM	0.307 µM	4.34 µM	–	TACE prodomain (TPD) R58A (from UniProt P78536 23-214) (domain or fragment)
–	0.018 µM	–	5.44 µM	TACE prodomain double mutant R58A/C184A (TPD-DM) (from UniProt P78536 23-214) (domain or fragment)

Reference: publication PMC5159831
